Test results taken from paper PMC7782850, “Metaxins are core components of mitochondrial transport adaptor complexes” (Nature Communications, 2021).

T1: His-MIRO-1 (C. elegans, UniProt Q94263 1-602)
T1 construct: C. elegans MIRO-1, residues 1-602; source: E. coli BL21 (DE3) codon plus, purified (Ni2+-Sepharose, size-exclusion chromatography)
T1 sequence (looked up): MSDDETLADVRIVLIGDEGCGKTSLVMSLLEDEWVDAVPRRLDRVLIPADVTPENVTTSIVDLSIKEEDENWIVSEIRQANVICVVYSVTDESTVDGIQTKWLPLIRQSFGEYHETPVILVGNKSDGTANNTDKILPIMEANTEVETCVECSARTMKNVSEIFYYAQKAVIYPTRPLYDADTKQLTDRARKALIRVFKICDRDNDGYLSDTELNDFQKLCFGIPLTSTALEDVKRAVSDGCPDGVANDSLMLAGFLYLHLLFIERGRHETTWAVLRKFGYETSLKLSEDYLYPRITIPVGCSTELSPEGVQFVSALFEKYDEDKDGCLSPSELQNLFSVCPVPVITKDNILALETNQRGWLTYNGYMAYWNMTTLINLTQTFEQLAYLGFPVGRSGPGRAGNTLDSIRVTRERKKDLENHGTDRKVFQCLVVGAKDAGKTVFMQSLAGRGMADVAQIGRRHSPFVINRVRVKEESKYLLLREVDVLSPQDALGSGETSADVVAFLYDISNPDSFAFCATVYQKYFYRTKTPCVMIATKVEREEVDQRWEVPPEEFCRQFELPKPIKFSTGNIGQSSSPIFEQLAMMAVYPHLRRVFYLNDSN

T2: Trx-MTX-1 (C. elegans, UniProt O45503 1-281)
T2 construct: C. elegans MTX-1, residues 1-281
T2 sequence (looked up): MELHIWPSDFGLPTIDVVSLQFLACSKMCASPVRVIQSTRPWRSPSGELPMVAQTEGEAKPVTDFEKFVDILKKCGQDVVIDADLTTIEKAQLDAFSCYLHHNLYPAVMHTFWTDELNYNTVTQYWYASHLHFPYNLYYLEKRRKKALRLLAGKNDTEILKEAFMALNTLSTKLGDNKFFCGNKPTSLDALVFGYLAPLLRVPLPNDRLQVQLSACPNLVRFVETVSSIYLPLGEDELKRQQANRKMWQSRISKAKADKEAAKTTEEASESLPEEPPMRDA


Legend:
His-MIRO-1 = molecular target: T1, His-MIRO-1; assay: SEC; analytical gel filtration of purified proteins, Superdex-200 10/300, 25 mM HEPES pH 7.4, 100 mM NaCl, 1 mM DTT, 1 mM EDTA; fractions analysed by SDS-PAGE with Coomassie-blue staining; settings: both partners purified
Trx-MTX-1 = molecular target: T2, Trx-MTX-1; assay: as above; settings: both partners purified

| binding result (His-MIRO-1) | binding result (Trx-MTX-1) | Binder |
| --- | --- | --- |
| binds | – | MTX-1/2 complex (formed by co-expression of Trx-MTX-1 and Trx-MTX-2) (complex, C. elegans, C. elegans MTX-1, residues 1-281; C. elegans MTX-2, full length; Complex formed beforehand by co-expression of the two chains; also called MTX-1/MTX-2 complex; metaxin complex; source: E. coli BL21 (DE3) codon plus, co-expressed (pRSFDuet-1); in cell lysate (pull-down); purified (Ni2+-Sepharose, size-exclusion chromatography) for gel filtration) chain 1: MELHIWPSDFGLPTIDVVSLQFLACSKMCASPVRVIQSTRPWRSPSGELPMVAQTEGEAKPVTDFEKFVDILKKCGQDVVIDADLTTIEKAQLDAFSCYLHHNLYPAVMHTFWTDELNYNTVTQYWYASHLHFPYNLYYLEKRRKKALRLLAGKNDTEILKEAFMALNTLSTKLGDNKFFCGNKPTSLDALVFGYLAPLLRVPLPNDRLQVQLSACPNLVRFVETVSSIYLPLGEDELKRQQANRKMWQSRISKAKADKEAAKTTEEASESLPEEPPMRDA chain 2: MSSSGVITQLVTDALSMNAAQDWEDVSLFTPYLNDQALMYDFADCLAVQTFLRMTSLPFNVRQRPNVDFISPDGVVPLLKINKTLITGFNAIVDFVHKKGVTLTSHLSETQVADMRANISMIEHLLTTVEKFVLWNHDETYDKVTKLRYGSVYHWPLSSVLPFVKRRKILEELSDKDWDTKTMDEVGEQADKVFRALSAQLGSQKYLTGDLPTEADALLFGHMYTLITVR |
| binds | binds | Trx-MTX-2 (natural protein, C. elegans, UniProt P34599 1-230, looked up, C. elegans MTX-2, full length; source: E. coli BL21 (DE3) codon plus; in cell lysate (pull-down); purified (Ni2+-Sepharose, size-exclusion chromatography) for gel filtration) MSSSGVITQLVTDALSMNAAQDWEDVSLFTPYLNDQALMYDFADCLAVQTFLRMTSLPFNVRQRPNVDFISPDGVVPLLKINKTLITGFNAIVDFVHKKGVTLTSHLSETQVADMRANISMIEHLLTTVEKFVLWNHDETYDKVTKLRYGSVYHWPLSSVLPFVKRRKILEELSDKDWDTKTMDEVGEQADKVFRALSAQLGSQKYLTGDLPTEADALLFGHMYTLITVR |
